Legend:
RNase H1 D252N [1] = target: T1, RNase H1 D252N (Drosophila melanogaster, UniProt A1Z769 17-333, D252N); assay: EMSA; 1 or 10 uM protein; BLI: 30 mM Tris-HCl pH 8.0, 100 mM KCl, 10% glycerol, 10 mM EDTA, 2 mM DTT, 400 ug/ml BSA, 30 C; EMSA: 25 mM Tris-HCl pH 8.0, 25 mM KCl, 1 mM DTT, 10 mM EDTA, 20 ug/ml BSA, room temperature, 30 min; settings: protein: recombinant; tags: C-terminal 6xHis (+2 vector residues); label: 5' 32P; single strand
T1 sequence: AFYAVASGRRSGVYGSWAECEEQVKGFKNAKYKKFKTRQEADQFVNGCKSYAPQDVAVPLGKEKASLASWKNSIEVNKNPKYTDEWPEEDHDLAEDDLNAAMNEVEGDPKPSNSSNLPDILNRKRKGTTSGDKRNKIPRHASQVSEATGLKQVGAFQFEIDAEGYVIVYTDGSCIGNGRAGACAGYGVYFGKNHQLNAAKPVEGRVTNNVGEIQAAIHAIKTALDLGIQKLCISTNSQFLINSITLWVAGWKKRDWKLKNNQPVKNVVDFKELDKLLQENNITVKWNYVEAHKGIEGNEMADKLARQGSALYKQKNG

RNase H1 ΔII/III D252N = target: T2, RNase H1 ΔII/III D252N (Drosophila melanogaster, UniProt A1Z769 17-333, D252N;del66-141); assay: EMSA; BLI: 30 mM Tris-HCl pH 8.0, 100 mM KCl, 10% glycerol, 10 mM EDTA, 2 mM DTT, 400 ug/ml BSA, 30 C; EMSA: 25 mM Tris-HCl pH 8.0, 25 mM KCl, 1 mM DTT, 10 mM EDTA, 20 ug/ml BSA, room temperature, 30 min; settings: protein: recombinant, tags: C-terminal 6xHis, blunt
T2 sequence: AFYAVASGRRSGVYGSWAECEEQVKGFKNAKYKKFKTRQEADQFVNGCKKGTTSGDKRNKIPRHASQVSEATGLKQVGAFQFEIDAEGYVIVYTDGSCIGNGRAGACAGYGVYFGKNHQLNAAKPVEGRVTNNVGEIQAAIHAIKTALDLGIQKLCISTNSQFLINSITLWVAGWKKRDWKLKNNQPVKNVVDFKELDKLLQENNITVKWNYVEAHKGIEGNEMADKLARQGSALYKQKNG

RNase H1 ΔI-III D252N = target: T3, RNase H1 ΔI-III D252N (Drosophila melanogaster, UniProt A1Z769 142-333, D252N); assay: EMSA; no supershift; BLI: 30 mM Tris-HCl pH 8.0, 100 mM KCl, 10% glycerol, 10 mM EDTA, 2 mM DTT, 400 ug/ml BSA, 30 C; EMSA: 25 mM Tris-HCl pH 8.0, 25 mM KCl, 1 mM DTT, 10 mM EDTA, 20 ug/ml BSA, room temperature, 30 min; settings: protein: recombinant; tags: C-terminal 6xHis; blunt
T3 sequence: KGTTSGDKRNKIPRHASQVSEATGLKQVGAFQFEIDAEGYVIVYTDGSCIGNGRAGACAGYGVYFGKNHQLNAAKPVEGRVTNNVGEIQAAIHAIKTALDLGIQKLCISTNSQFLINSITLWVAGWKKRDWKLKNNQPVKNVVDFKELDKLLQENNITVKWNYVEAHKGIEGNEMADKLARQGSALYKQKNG

RNase H1 ΔI/II D252N = target: T4, RNase H1 ΔI/II D252N (Drosophila melanogaster, UniProt A1Z769 87-333, D252N); assay: as above; settings: protein: recombinant; tags: C-terminal 6xHis; blunt
T4 sequence: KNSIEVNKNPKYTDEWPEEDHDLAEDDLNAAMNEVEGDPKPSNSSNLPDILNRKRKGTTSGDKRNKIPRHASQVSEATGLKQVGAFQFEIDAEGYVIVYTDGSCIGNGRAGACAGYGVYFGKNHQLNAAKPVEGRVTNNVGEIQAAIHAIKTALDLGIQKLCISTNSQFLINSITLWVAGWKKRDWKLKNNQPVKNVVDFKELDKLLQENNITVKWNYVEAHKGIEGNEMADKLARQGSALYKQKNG

RNase H1 ΔIV/V [2] = target: T5, RNase H1 ΔIV/V (Drosophila melanogaster, UniProt A1Z769 17-142); assay: EMSA; supershift at high protein; BLI: 30 mM Tris-HCl pH 8.0, 100 mM KCl, 10% glycerol, 10 mM EDTA, 2 mM DTT, 400 ug/ml BSA, 30 C; EMSA: 25 mM Tris-HCl pH 8.0, 25 mM KCl, 1 mM DTT, 10 mM EDTA, 20 ug/ml BSA, room temperature, 30 min; settings: protein: recombinant; tags: C-terminal 6xHis; blunt
T5 sequence: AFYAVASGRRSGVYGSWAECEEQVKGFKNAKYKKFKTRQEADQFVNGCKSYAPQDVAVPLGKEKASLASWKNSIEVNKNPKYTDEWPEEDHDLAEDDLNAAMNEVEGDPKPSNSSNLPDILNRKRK

RNase H1 ΔIII-V [3] = target: T6, RNase H1 ΔIII-V (Drosophila melanogaster, UniProt A1Z769 17-87); assay: as above; settings: protein: recombinant; tags: C-terminal 6xHis; blunt
T6 sequence: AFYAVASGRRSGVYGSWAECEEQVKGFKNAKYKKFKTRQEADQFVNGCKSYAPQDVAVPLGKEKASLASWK

RNase H1 ΔII-V [4] = target: T7, RNase H1 ΔII-V (Drosophila melanogaster, UniProt A1Z769 17-65); assay: as above; settings: protein: recombinant; tags: C-terminal 6xHis; blunt
T7 chain: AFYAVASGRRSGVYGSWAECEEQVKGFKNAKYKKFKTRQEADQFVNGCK

RNase H1 D252N [5] = target: T1, RNase H1 D252N; assay: EMSA; second shift at high protein; BLI: 30 mM Tris-HCl pH 8.0, 100 mM KCl, 10% glycerol, 10 mM EDTA, 2 mM DTT, 400 ug/ml BSA, 30 C; EMSA: 25 mM Tris-HCl pH 8.0, 25 mM KCl, 1 mM DTT, 10 mM EDTA, 20 ug/ml BSA, room temperature, 30 min; settings: protein: recombinant; tags: C-terminal 6xHis (+2 vector residues); blunt
RNase H1 ΔIV/V [6] = target: T5, RNase H1 ΔIV/V; assay: BLI; BLI: 30 mM Tris-HCl pH 8.0, 100 mM KCl, 10% glycerol, 10 mM EDTA, 2 mM DTT, 400 ug/ml BSA, 30 C; EMSA: 25 mM Tris-HCl pH 8.0, 25 mM KCl, 1 mM DTT, 10 mM EDTA, 20 ug/ml BSA, room temperature, 30 min; settings: protein: recombinant, tags: C-terminal 6xHis, blunt
RNase H1 ΔIII-V [7] = target: T6, RNase H1 ΔIII-V; assay: as above; settings: protein: recombinant, tags: C-terminal 6xHis, blunt
RNase H1 ΔII-V [8] = target: T7, RNase H1 ΔII-V; assay: as above; settings: protein: recombinant, tags: C-terminal 6xHis, blunt
RNase H1 D252N [9] = target: T1, RNase H1 D252N; assay: EMSA; BLI: 30 mM Tris-HCl pH 8.0, 100 mM KCl, 10% glycerol, 10 mM EDTA, 2 mM DTT, 400 ug/ml BSA, 30 C; EMSA: 25 mM Tris-HCl pH 8.0, 25 mM KCl, 1 mM DTT, 10 mM EDTA, 20 ug/ml BSA, room temperature, 30 min; settings: protein: recombinant, tags: C-terminal 6xHis (+2 vector residues), blunt
[10] = target: Dm RNase H1 (amino acids 17-333), bacterially expressed (Drosophila melanogaster)

B1: 30-nt ssDNA (ssDNA)
DNA: AAGTAGGGCACGCTATAGTTAGTCTTCGCG
B1: no binding (RNase H1 D252N [1]).

B2: 30-bp RNA/DNA hybrid (EMSA) (DNA:RNA)
RNA: CGCGAAGACUAACUAUAGCGUGCCCUACUU
DNA: B1 DNA
B2: binds (RNase H1 ΔII/III D252N); binds (RNase H1 ΔI-III D252N); binds (RNase H1 ΔI/II D252N). B2: binds (RNase H1 ΔIV/V [2]); binds (RNase H1 ΔIII-V [3]); binds (RNase H1 ΔII-V [4]). B2: binds (RNase H1 D252N [5]).

B3: 30-nt ssRNA (ssRNA)
RNA: B2 RNA
B3: no binding (RNase H1 D252N [1]).

B4: 30-bp dsRNA (dsRNA)
RNA 1: AAGUAGGGCACGCUAUAGUUAGUCUUCGCG
RNA 2: B2 RNA
B4: no binding (RNase H1 ΔIV/V [6]; label: 5' biotin on S2 for BLI); no binding (RNase H1 ΔIII-V [7]; label: 5' biotin on S2 for BLI); no binding (RNase H1 ΔII-V [8]; label: 5' biotin on S2 for BLI). B4: binds (RNase H1 ΔII/III D252N; label: 5' biotin on S2 for BLI); binds (RNase H1 D252N [9]; label: 5' biotin on S2 for BLI).

B5: 30-bp dsDNA (dsDNA)
DNA 1: B1 DNA
DNA 2: CGCGAAGACTAACTATAGCGTGCCCTACTT
B5: no binding (RNase H1 ΔIV/V [6]; label: 5' biotin on S3 for BLI); no binding (RNase H1 ΔIII-V [7]; label: 5' biotin on S3 for BLI); no binding (RNase H1 ΔII-V [8]; label: 5' biotin on S3 for BLI). B5: binds (RNase H1 ΔII/III D252N; label: 5' biotin on S3 for BLI); binds (RNase H1 D252N [9]; label: 5' biotin on S3 for BLI).

B6: Drosophila mitochondrial single-stranded DNA-binding protein, purified (natural protein)
chain: ATTTTAAAPAKVEKTVNTVTILGRVGADPQLRGSQEHPVVTFSVATHTNYKYENGDWAQRTDWHRVVVFKPNLRDTVLEYLKKGQRTMVQGKITYGEITDQQGNQKTSTSIIADDVLFFRDANN
In the case of B6, the nuclease activity of 0.1 nM Dm RNase H1 on radiolabelled 30-bp RNA/DNA hybrid pre-incubated with mtSSB (0-500 nM), without ssDNA; densitometry [10] is reported as 55%.
